From article PMC7279403, “Zygotic Vsx1 Plays a Key Role in Defining V2a Interneuron Sub-Lineage by Directly Repressing tal1 Transcription in Zebrafish” come the findings set out here.

Data set [1] addresses T1, Vsx1 homeodomain (Vsx1-Homeodomain-His) (zebrafish, UniProt O42250 132-224). Briefly: competition; 500-fold excess against biotin site 12 probe; only weak complex left; LightShift Chemiluminescent EMSA kit (Pierce), 6% native PAGE; binding buffer as in He et al. [23], salt, pH and temperature not given. Conditions: protein: recombinant; tags: His in the Results; label: none.

Data set [2] addresses T1, Vsx1 homeodomain (Vsx1-Homeodomain-His). Description: EMSA; LightShift Chemiluminescent EMSA kit (Pierce), 6% native PAGE; binding buffer as in He et al. [23], salt, pH and temperature not given. Conditions: protein: recombinant; tags: His in the Results; label: biotin 5' end (labeled probe).
For data set [3] the target is unchanged. Description: competition; 500-fold or more excess against biotin site 14 probe; no competition; LightShift Chemiluminescent EMSA kit (Pierce), 6% native PAGE; binding buffer as in He et al. [23], salt, pH and temperature not given. Conditions: protein: recombinant; tags: His in the Results; label: none.
The target is the same in data set [4]. Description: competition; 500-fold or more excess against biotin site 12 probe; no competition; LightShift Chemiluminescent EMSA kit (Pierce), 6% native PAGE; binding buffer as in He et al. [23], salt, pH and temperature not given. Conditions: protein: recombinant; tags: His in the Results; label: none.
The target is the same in data set [5]. Description: competition; 500-fold excess against biotin site 14 probe; only weak complex left; LightShift Chemiluminescent EMSA kit (Pierce), 6% native PAGE; binding buffer as in He et al. [23], salt, pH and temperature not given. Conditions: protein: recombinant; tags: His in the Results; label: none.

T1 sequence (O42250 132-224): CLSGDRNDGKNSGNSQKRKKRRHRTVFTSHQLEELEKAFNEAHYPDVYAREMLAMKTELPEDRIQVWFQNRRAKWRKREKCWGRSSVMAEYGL

B1: tal1 site 12 unlabeled wild-type competitor (dsDNA)
DNA 1: TGGCCGCATAATTAATTTCTGATTGAG
DNA 2: CTCAATCAGAAATTAATTATGCGGCCA
With B1, in data set [1], the binding result is reported as “binds”.

B2: tal1 binding site 14 probe (dsDNA)
DNA 1: ACGCAGATCATAATTAGGCGTTTGATC
DNA 2: GATCAAACGCCTAATTATGATCTGCGT
Consider B2, for which the binding result in data set [2] is given as “binds”.

B3: tal1 site 14 mutant competitor (TAATTA to TCGATA) (dsDNA)
DNA 1: ACGCAGATCATCGATAGGCGTTTGATC
DNA 2: GATCAAACGCCTATCGATGATCTGCGT
For the molecule B3, the binding result in data set [3] was “no binding”.

B4: tal1 site 12 mutant competitor (TAATTA to TCGATA) (dsDNA)
DNA 1: TGGCCGCATCGATCGATTCTGATTGAG
DNA 2: CTCAATCAGAATCGATCGATGCGGCCA
Regarding B4, the binding result in data set [4] was “no binding”.

B5: tal1 site 14 unlabeled wild-type competitor (dsDNA)
DNA 1: ACGCAGATCATAATTAGGCGTTTGATC
DNA 2: GATCAAACGCCTAATTATGATCTGCGT
As for B5, the binding result in data set [5] was “binds”.

B6: tal1 binding site 12 probe (dsDNA)
DNA 1: TGGCCGCATAATTAATTTCTGATTGAG
DNA 2: CTCAATCAGAAATTAATTATGCGGCCA
For B6, the binding result in data set [2] was “binds”.
